T1: human SLC34A2 (human, UniProt O95436 1-690)
T1 construct: whole, on cells; also called human solute carrier 34 A2; NaPi2b
T1 sequence (looked up): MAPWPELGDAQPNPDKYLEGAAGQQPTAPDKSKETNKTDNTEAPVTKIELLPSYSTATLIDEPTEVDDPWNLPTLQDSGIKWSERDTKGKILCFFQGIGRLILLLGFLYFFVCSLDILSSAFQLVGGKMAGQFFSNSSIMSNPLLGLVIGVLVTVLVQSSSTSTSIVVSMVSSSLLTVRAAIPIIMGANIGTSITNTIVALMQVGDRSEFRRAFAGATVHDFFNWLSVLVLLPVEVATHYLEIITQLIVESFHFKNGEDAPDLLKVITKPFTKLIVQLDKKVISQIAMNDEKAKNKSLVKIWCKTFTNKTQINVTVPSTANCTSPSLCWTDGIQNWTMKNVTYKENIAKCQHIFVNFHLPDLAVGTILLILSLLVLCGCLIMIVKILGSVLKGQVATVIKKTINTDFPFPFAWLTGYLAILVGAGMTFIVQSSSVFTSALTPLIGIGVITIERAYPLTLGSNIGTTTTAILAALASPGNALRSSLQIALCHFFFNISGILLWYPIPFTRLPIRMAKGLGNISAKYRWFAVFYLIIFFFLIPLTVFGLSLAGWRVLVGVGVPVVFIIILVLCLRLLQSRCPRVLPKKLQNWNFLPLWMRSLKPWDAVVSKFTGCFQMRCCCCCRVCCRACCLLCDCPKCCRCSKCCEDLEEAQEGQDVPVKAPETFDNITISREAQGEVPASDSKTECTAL


Target: T1, human SLC34A2
Assay: FACS, OVCAR3 cells
Procedure: The binding of these humanized antibodies to OVCAR3 cells was evaluated as described above, and the results are shown in FIG. 12A-D and Tables 16A-D.

| EC50 | Top (MFI) | Binder |
| --- | --- | --- |
| 6.08 nM | 26800 MFI | 62G10E4G8.p3.z7 hIgG1 (antibody, V domains shown, humanized hIgG1) VH: QVQLVQSGAEVKKPGASVKVSCKASGYTFPSYITHWVRQAPGQGLEWIGAIYPGNADTSYIQKFKGRVTMTADKSTSTVYMELSSLRSEDTAVYYCARGTYGTSAWFTYWGQGTLVTVSS VL: EIVLTQSPATLSVSPGERATLSCRARQNIGNNLYWYQQKPGQSPRLLIKYASQSISGIPSRFSGSGSGTDFTLTISSLQSEDFAVYFCQQSFSWPLTFGQGTKLEIK |
| ~1360 nM | ~230000 MFI | 62G10E4G8.p3.z5 hIgG1 (antibody, V domains shown, humanized hIgG1) VH: QVQLVQSGAEVKKPGASVKVSCKASGYTFPSYITHWVRQAPGQGLEWIGAIYPGNADTSYIQKFKGRVTMTADKSTSTVYMELSSLRSEDTAVYYCARGTYGTSAWFTYWGQGTLVTVSS VL: EIVMTQSPATLSVSPGERATLSCRARQNIGNNLYWYQQKPGQAPRLLIYYASQSISGIPARFSGSGSGTEFTLTISSLQSEDFAVYYCQQSFSWPLTFGQGTKLEIK |
| 16.3 nM | 29900 MFI | 62G10E4G8.p3.z4 hIgG1 (antibody, V domains shown, humanized hIgG1) VH: QVQLVQSGAEVKKPGASVKVSCKASGYTFPSYITHWVRQAPGQGLEWMGAIYPGNADTSYIQKFKGRVTMTRDTSTSTVYMELSSLRSEDTAVYYCARGTYGTSAWFTYWGQGTLVTVSS VL: EIVLTQSPATLSASPGERATLSCRARQNIGNNLYWYQQKPGQSPRLLIKYASQSISGIPSRFSGSGSGTDFTLTISSVQSEDFAVYFCQQSFSWPLTFGAGTKLEIK |
| 24.1 nM | 31300 MFI | 62G10E4G8.p3.z9 hIgG1 (antibody, V domains shown, humanized hIgG1) VH: QVQLVQSGAEVKKPGASVKVSCKASGYTFPSYITHWVKQAPGQGLEWIGAIYPGNADTSYIQKFKGRVTLTADKSTSTAYMELSSLRSEDTAVYYCARGTYGTSAWFTYWGQGTLVTVSS VL: EIVMTQSPATLSVSPGERATLSCRARQNIGNNLYWYQQKPGQAPRLLIYYASQSISGIPARFSGSGSGTEFTLTISSLQSEDFAVYYCQQSFSWPLTFGQGTKLEIK |
| 4.87 nM | 27400 MFI | 62G10E4G8.p3.z10 hIgG1 (antibody, V domains shown, humanized hIgG1) VH: QVQLVQSGAEVKKPGASVKVSCKASGYTFPSYITHWVKQAPGQGLEWIGAIYPGNADTSYIQKFKGRVTLTADKSTSTAYMELSSLRSEDTAVYYCARGTYGTSAWFTYWGQGTLVTVSS VL: EIVMTQSPATLSVSPGERATLSCRARQNIGNNLYWYQQKPGQSPRLLIKYASQSISGIPARFSGSGSGTEFTLTISSLQSEDFAVYFCQQSFSWPLTFGQGTKLEIK |
| 17.3 nM | 31300 MFI | 62G10E4G8.p3.z3 hIgG1 (antibody, V domains shown, humanized hIgG1) VH: QVQLVQSGAEVKKPGASVKVSCKASGYTFPSYITHWVRQAPGQGLEWMGAIYPGNADTSYIQKFKGRVTMTRDTSTSTVYMELSSLRSEDTAVYYCARGTYGTSAWFTYWGQGTLVTVSS VL: EIVLTQSPATLSVSPGERATLSCRARQNIGNNLYWYQQKPGQSPRLLIKYASQSISGIPSRFSGSGSGTDFTLTISSLQSEDFAVYFCQQSFSWPLTFGQGTKLEIK |
| 8.06 nM | 28200 MFI | 62G10E4G8.p3.z6 hIgG1 (antibody, V domains shown, humanized hIgG1) VH: QVQLVQSGAEVKKPGASVKVSCKASGYTFPSYITHWVRQAPGQGLEWIGAIYPGNADTSYIQKFKGRVTMTADKSTSTVYMELSSLRSEDTAVYYCARGTYGTSAWFTYWGQGTLVTVSS VL: EIVMTQSPATLSVSPGERATLSCRARQNIGNNLYWYQQKPGQSPRLLIKYASQSISGIPARFSGSGSGTEFTLTISSLQSEDFAVYFCQQSFSWPLTFGQGTKLEIK |
| 10.9 nM | 31900 MFI | 62G10E4G8.p3.z16 hIgG1 (antibody, V domains shown, humanized hIgG1) VH: QVQLVQSGAEVVKPGASVKMSCKASGYTFPSYITHWVKQAPGQGLEWIGAIYPGNADTSYIQKFKGRATLTADKSTSTAYMELSSLRSEDTAVYYCARGTYGTSAWFTYWGQGTLVTVSS VL: EIVLTQSPATLSASPGERATLSCRARQNIGNNLYWYQQKPGQSPRLLIKYASQSISGIPSRFSGSGSGTDFTLTISSVQSEDFAVYFCQQSFSWPLTFGAGTKLEIK |
| 2.96 nM | 25400 MFI | 62G10E4G8.p3.z12 hIgG1 (antibody, V domains shown, humanized hIgG1) VH: QVQLVQSGAEVKKPGASVKVSCKASGYTFPSYITHWVKQAPGQGLEWIGAIYPGNADTSYIQKFKGRVTLTADKSTSTAYMELSSLRSEDTAVYYCARGTYGTSAWFTYWGQGTLVTVSS VL: EIVLTQSPATLSASPGERATLSCRARQNIGNNLYWYQQKPGQSPRLLIKYASQSISGIPSRFSGSGSGTDFTLTISSVQSEDFAVYFCQQSFSWPLTFGAGTKLEIK |
| 4.58 nM | 27900 MFI | 62G10E4G8.p3.z14 hIgG1 (antibody, V domains shown, humanized hIgG1) VH: QVQLVQSGAEVVKPGASVKMSCKASGYTFPSYITHWVKQAPGQGLEWIGAIYPGNADTSYIQKFKGRATLTADKSTSTAYMELSSLRSEDTAVYYCARGTYGTSAWFTYWGQGTLVTVSS VL: EIVMTQSPATLSVSPGERATLSCRARQNIGNNLYWYQQKPGQSPRLLIKYASQSISGIPARFSGSGSGTEFTLTISSLQSEDFAVYFCQQSFSWPLTFGQGTKLEIK |
| 32.9 nM | 29700 MFI | 62G10E4G8.p3.z2 hIgG1 (antibody, V domains shown, humanized hIgG1) VH: QVQLVQSGAEVKKPGASVKVSCKASGYTFPSYITHWVRQAPGQGLEWMGAIYPGNADTSYIQKFKGRVTMTRDTSTSTVYMELSSLRSEDTAVYYCARGTYGTSAWFTYWGQGTLVTVSS VL: EIVMTQSPATLSVSPGERATLSCRARQNIGNNLYWYQQKPGQSPRLLIKYASQSISGIPARFSGSGSGTEFTLTISSLQSEDFAVYFCQQSFSWPLTFGQGTKLEIK |
| 944 nM | 87700 MFI | 62G10E4G8.p3.z1 hIgG1 (antibody, V domains shown, humanized hIgG1) VH: QVQLVQSGAEVKKPGASVKVSCKASGYTFPSYITHWVRQAPGQGLEWMGAIYPGNADTSYIQKFKGRVTMTRDTSTSTVYMELSSLRSEDTAVYYCARGTYGTSAWFTYWGQGTLVTVSS VL: EIVMTQSPATLSVSPGERATLSCRARQNIGNNLYWYQQKPGQAPRLLIYYASQSISGIPARFSGSGSGTEFTLTISSLQSEDFAVYYCQQSFSWPLTFGQGTKLEIK |
| 2.75 nM | 27100 MFI | 30H9B8F9.p1.z1 hIgG1 (antibody, V domains shown, humanized hIgG1) VH: QVQLVQSGAEVKKPGASVKVSCKASGYTFTTNNMHWVRQAPGQGLEWMGAIYPGSGATAYNQKFKGRVTMTRDTSTSTVYMELSSLRSEDTAVYYCASGMYGHGAMDYWGQGTLVTVSS VL: DIQLTQSPSFLSASVGDRVTITCKASQDVGTAVAWYQQKPGKAPKLLIYWATTRHSGVPSRFSGSGSGTEFTLTISSLQPEDFATYYCQQYSSNPLTFGQGTKLEIK |
| 2.38 nM | 19600 MFI | 30H9B8F9.p1.z3 hIgG1 (antibody, V domains shown, humanized hIgG1) VH: QVQLVQSGAEVKKPGASVKVSCKASGYTFTTNNMHWVRQAPGQGLEWMGAIYPGSGATAYNQKFKGRVTMTRDTSTSTVYMELSSLRSEDTAVYYCASGMYGHGAMDYWGQGTLVTVSS VL: DIQMTQSPSFLSASVGDRVTITCKASQDVGTAVAWYQQKPGKSPKLLIYWATTRHSGVPDRFSGSGSGTEFIFTISSVQPEDFATYFCQQYSSNPLTFGAGTKLEIK |
| 3.09 nM | 25200 MFI | 30H9B8F9.p1.z2 hIgG1 (antibody, V domains shown, humanized hIgG1) VH: QVQLVQSGAEVKKPGASVKVSCKASGYTFTTNNMHWVRQAPGQGLEWMGAIYPGSGATAYNQKFKGRVTMTRDTSTSTVYMELSSLRSEDTAVYYCASGMYGHGAMDYWGQGTLVTVSS VL: DIQLTQSPSFLSASVGDRVTITCKASQDVGTAVAWYQQKPGKSPKLLIYWATTRHSGVPDRFSGSGSGTEFTFTISSLQPEDFATYFCQQYSSNPLTFGQGTKLEIK |

Reference: patent US20240301052A1 (LANOVA MEDICINES DEVELOPMENT, published 2024)
